Values after ≈ are worked out from the molar mass of the structure shown.
What was measured:
[1] = Estimated solubility in water
trypsin [2] = target: T1, trypsin (Bos taurus, UniProt P00760); experiment: Trypsin-catalyzed hydrolysis and condensation of alkoxysilanes; assay type: biochemical, bovine; design: purchased Sigma-Aldrich #T4665; host or cells: bovine pancreas
T1 sequence (P00760 24-246): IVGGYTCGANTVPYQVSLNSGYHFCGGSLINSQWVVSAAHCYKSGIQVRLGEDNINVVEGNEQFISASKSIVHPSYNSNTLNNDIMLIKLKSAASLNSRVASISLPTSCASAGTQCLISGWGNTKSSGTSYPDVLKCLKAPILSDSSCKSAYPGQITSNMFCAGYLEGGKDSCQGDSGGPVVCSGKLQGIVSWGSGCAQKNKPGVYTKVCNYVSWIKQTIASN

trypsin [3] = target: T1, trypsin; experiment: Trypsin-catalyzed polycondensation, seven days; assay type: biochemical, bovine; design: purchased Sigma-Aldrich #T4665; host or cells: bovine pancreas; conditions: 25° C.
trypsin [4] = target: T1, trypsin; conditions: neutral medium (pH 7.0) and toluene
trypsin [5] = target: T1, trypsin; experiment: Standard enzymatic activity assay of inhibited trypsin; assay type: biochemical, bovine; design: purchased Sigma-Aldrich #T4665; host or cells: bovine pancreas; conditions: excess inhibitor (4:1 BBI, 2:1 PCI to protease mole ratio), pH 7.0, two hours
Method: Since α-chymotrypsin was inhibited by PCI, the presence of trypsin in α-chymotrypsin was confirmed. […] .
A proteinaceous inhibition study was conducted to investigate the role of the enzymatic active site in the hydrolysis and condensation of trimethylethoxysilane.

trypsin [6] = target: T1, trypsin; experiment: Proteinaceous inhibition of the trimethylethoxysilane reaction; assay type: biochemical, bovine; design: purchased Sigma-Aldrich #T4665; host or cells: bovine pancreas; conditions: 25° C., three hours, pH 7.0
Method: A proteinaceous inhibition study was conducted to investigate the role of the enzymatic active site in the hydrolysis and condensation of trimethylethoxysilane. […] .

[7] = Enzyme-catalyzed condensation study after six days; assay type: biochemical
Description: This study was directed to an enzyme screen with […] in order to evaluate the ability of various enzymes to catalyze the formation of a siloxane bond. Based on the similarities of the proteins isolated from the Tethya aurantia marine sponge (silicatein), Cylindrotheca fusiformis diatom (silaffin), and Equisetum telmateia plant (biopolymer extract), a series of lipases and serine-proteases were selected as homologous proteolytic enzymes. […] […]. In this study, control reactions were defined as non-enzymatic reactions. Specifically, experiments conducted in the absence of a protein were defined as negative control reactions. Proteinaceous molecules such as bovine serum albumin and porcine γ-globulins were used to study non-specific protein catalysis.
[…]. […] (˜200 mg/mL).

[8] = Protease-catalyzed condensation study after three hours; assay type: biochemical; conditions: pH 7.0, three hours
Method: In comparison to control reactions, the ability of the proteases detailed in Table 3 to catalyse siloxane condensation was screened with […]. Comparatively, the original reactions conducted in the enzyme-catalysed condensation study were performed for six days versus three hours in this study.
Prior to reaction, the glass vials were silylated. […].
TLCK inhibits trypsin by alkylating the histidine residue in the catalytic triad.

[9] = Temperature and pH studies of the trypsin-catalyzed condensation of trimethylsilanol; assay type: biochemical
Method: The effect of temperature on trypsin as well as the enzyme-catalyzed condensation reaction was studied. Prior to reaction, buffered aqueous solutions (pH 7.0) of trypsin were stirred and equilibrated at set temperatures in a thermostated water bath (+/−0.1° C.) for 20 minutes. […] In the thermal denaturation experiments, trypsin was boiled for 20 minutes and three hours in 50 mM Tris-HCl buffered Milli-Q water (pH 7.0), independently, before performing the condensation reaction at 25° C.
. […] Based on the chromatographic data, the enzyme-catalyzed condensation reaction was dependent on the pH. The silanol condensation reaction was optimum at pH 7.0.

[10] = Hydrolysis and condensation of trimethylethoxysilane by different sources of trypsin; effect of calcium; assay type: biochemical; conditions: 20 mM CaCl2, pH 7.0, 25° C., three hours
Description: Although various sources (e.g. mammalian, fish) of trypsin are similar (e.g. tertiary structure), their selectivity and activity may be different. […] . The reaction products were isolated and quantitatively analysed by GC (FIG. 24).
Calcium activation of trypsin induces changes in the tertiary structure of the enzyme. […] . […] The reaction products were isolated and quantitatively analysed by GC (FIG. 25).

α-chymotrypsin = target: T2, α-chymotrypsin (Bos taurus, UniProt P00766); experiment: Standard enzymatic activity assay of inhibited α-chymotrypsin; assay type: biochemical, bovine; conditions: excess inhibitor (4:1 BBI to protease mole ratio), pH 7.0, two hours
T2 construct: purchased Sigma-Aldrich #C-4129; host or cells: bovine pancreas
Description: Since α-chymotrypsin was inhibited by PCI, the presence of trypsin in α-chymotrypsin was confirmed. In addition, condensation was not observed despite the partial inhibition of α-chymotrypsin with BBI.

CCO[Si](C)(C)C [trimethylethoxysilane]
solubility [1]: 1000 µg/mL (≈ 8.46 mM)
trypsin-catalyzed hydrolysis and condensation (result in words) (trypsin [2]; 4:1 monomer to enzyme weight ratio, 25° C., three hours): preferentially catalyze the hydrolysis and condensation
relative turnover number of hydrolysis (trypsin [2]; 10° C.): 0.53 s⁻¹
condensed in the presence of trypsin (trypsin [2]; pH 7.0, 25° C., three hours): 84%
hydrolysed in the presence of trypsin (trypsin [2]; pH 7.0, 25° C., three hours): 100%

CCO[Si](C)(OCC)OCC [methyltriethoxysilane]
trypsin-catalyzed polycondensation (result in words) (trypsin [3]): promoted the complete hydrolysis and, subsequent, polycondensation

C[Si](C)(C)O[Si](C)(C)C [hexamethyldisiloxane]
trypsin-catalyzed hydrolysis of the siloxane bond (reverse reaction) (trypsin [4]): not observed to catalyze the hydrolysis of a siloxane bond

B1: PCI: trypsin inhibitor from Glycine max, 181 amino acids (protein, UniProt P01070 25-205, looked up)
Trypsin inhibitor A: DFVLDNEGNPLENGGTYYILSDITAFGGIRAAPTGNERCPLTVVQSRNELDKGIGTIISSPYRIRFIAEGHPLSLKFDSFAVIMLCVGIPTEWSVVEDLPEGPAVKIGENKDAMDGWFRLERVSDDEFNNYKLVFCPQQAEDDKCGDIGISIDHDDGTRRLVVSKNKPLVVQFQKLDKESL
inhibition of trypsin (trypsin [5]): 91%
decrease of percent hydrolysis of trimethylethoxysilane with inhibited trypsin (trypsin [6]): 6%

B2: trypsin: bovine pancreatic trypsin, commercial preparation (protein, UniProt P00760 24-246, looked up)
Serine protease 1: IVGGYTCGANTVPYQVSLNSGYHFCGGSLINSQWVVSAAHCYKSGIQVRLGEDNINVVEGNEQFISASKSIVHPSYNSNTLNNDIMLIKLKSAASLNSRVASISLPTSCASAGTQCLISGWGNTKSSGTSYPDVLKCLKAPILSDSSCKSAYPGQITSNMFCAGYLEGGKDSCQGDSGGPVVCSGKLQGIVSWGSGCAQKNKPGVYTKVCNYVSWIKQTIASN
condensation of trimethylsilanol, Buffered pH 7 ([7]; 50 mM Tris-HCl pH 7.0, 25° C.): ✓ (determined to catalyse the condensation of greater than ten times more trimethylsilanol than the negative control reactions; as well as, greater than three or ten times more trimethylsilanol than the BSA reactions in organic and aqueous media, respectively)
condensation of trimethylsilanol, Dry Toluene ([7]; dry toluene, 25° C.): ✓ (determined to catalyse the condensation of greater than ten times more trimethylsilanol than the negative control reactions; as well as, greater than three or ten times more trimethylsilanol than the BSA reactions in organic and aqueous media, respectively)
condensation of trimethylsilanol, Water ([7]; water, 25° C.): ✓ (determined to catalyse the condensation of greater than ten times more trimethylsilanol than the negative control reactions; as well as, greater than three or ten times more trimethylsilanol than the BSA reactions in organic and aqueous media, respectively)
condensation of trimethylsilanol, Wet Toluene ([7]; wet toluene, 25° C.): ✓ (determined to catalyse the condensation of greater than ten times more trimethylsilanol than the negative control reactions; as well as, greater than three or ten times more trimethylsilanol than the BSA reactions in organic and aqueous media, respectively)
condensation of trimethylsilanol (result in words) [8]: preferentially catalyzed the condensation
optimum pH of the silanol condensation reaction ([9]; 25° C., three hours, pH 4.0 to pH 10.0): 7.0
optimum temperature of the condensation reaction ([9]; pH 7.0, three hours): approximately 25 °C
increase of yield of the condensation of trimethylsilanol with calcium [10]: did not change

B3: BBI: trypsin-chymotrypsin inhibitor from soybean, 71 amino acids (protein, UniProt P01055 40-110, looked up)
Bowman-Birk type proteinase …: DDESSKPCCDQCACTKSNPPQCRCSDMRLNSCHSACKSCICALSYPAQCFCVDITDFCYEPCKPSEDDKEN
inhibition of trypsin (trypsin [5]): 98%
decrease of percent hydrolysis of trimethylethoxysilane with inhibited trypsin (trypsin [6]): 24%
inhibition of α-chymotrypsin (α-chymotrypsin): 63%

From patent US7455998B2, “Methods for forming structurally defined organic molecules” (Dow Corning Corporation, priority 2004, dated 2008)
